# Paper PMC3156093
# Molecular target: EcoRV restriction endonuclease (UniProt P04390 1-245)
# Assay: competition
# Sequence of EcoRV restriction endonuclease (P04390 whole entry): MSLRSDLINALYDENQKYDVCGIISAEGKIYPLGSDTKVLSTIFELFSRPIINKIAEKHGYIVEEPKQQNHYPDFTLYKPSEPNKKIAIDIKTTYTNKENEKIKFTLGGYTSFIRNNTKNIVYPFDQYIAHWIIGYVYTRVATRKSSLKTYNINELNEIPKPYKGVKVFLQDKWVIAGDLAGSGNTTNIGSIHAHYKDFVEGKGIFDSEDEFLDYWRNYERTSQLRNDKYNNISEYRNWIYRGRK
binder,measurement,value
30 bp specific site oligonucleotide (dsDNA) DNA 1: CGGGCCTCTTGCGGGATATCGTCCATTCCG DNA 2: CGGAATGGACGATATCCCGCAAGAGGCCCG,binding signal,< 9 % N1 complex remaining at 30-fold excess competitor
